From paper PMC2233703

How the values were obtained:
[1] = biological target: sulfonylurea receptor SUR1 (UniProt Q09427)
[2] = biological target: sulfonylurea receptor SUR1 (UniProt Q09427); remark: listed apart in the source
[3] = biological target: sulfonylurea receptor SUR1 (UniProt Q09427); remark: listed apart in the source

Chain of UniProt Q09427 (Q09427 whole entry): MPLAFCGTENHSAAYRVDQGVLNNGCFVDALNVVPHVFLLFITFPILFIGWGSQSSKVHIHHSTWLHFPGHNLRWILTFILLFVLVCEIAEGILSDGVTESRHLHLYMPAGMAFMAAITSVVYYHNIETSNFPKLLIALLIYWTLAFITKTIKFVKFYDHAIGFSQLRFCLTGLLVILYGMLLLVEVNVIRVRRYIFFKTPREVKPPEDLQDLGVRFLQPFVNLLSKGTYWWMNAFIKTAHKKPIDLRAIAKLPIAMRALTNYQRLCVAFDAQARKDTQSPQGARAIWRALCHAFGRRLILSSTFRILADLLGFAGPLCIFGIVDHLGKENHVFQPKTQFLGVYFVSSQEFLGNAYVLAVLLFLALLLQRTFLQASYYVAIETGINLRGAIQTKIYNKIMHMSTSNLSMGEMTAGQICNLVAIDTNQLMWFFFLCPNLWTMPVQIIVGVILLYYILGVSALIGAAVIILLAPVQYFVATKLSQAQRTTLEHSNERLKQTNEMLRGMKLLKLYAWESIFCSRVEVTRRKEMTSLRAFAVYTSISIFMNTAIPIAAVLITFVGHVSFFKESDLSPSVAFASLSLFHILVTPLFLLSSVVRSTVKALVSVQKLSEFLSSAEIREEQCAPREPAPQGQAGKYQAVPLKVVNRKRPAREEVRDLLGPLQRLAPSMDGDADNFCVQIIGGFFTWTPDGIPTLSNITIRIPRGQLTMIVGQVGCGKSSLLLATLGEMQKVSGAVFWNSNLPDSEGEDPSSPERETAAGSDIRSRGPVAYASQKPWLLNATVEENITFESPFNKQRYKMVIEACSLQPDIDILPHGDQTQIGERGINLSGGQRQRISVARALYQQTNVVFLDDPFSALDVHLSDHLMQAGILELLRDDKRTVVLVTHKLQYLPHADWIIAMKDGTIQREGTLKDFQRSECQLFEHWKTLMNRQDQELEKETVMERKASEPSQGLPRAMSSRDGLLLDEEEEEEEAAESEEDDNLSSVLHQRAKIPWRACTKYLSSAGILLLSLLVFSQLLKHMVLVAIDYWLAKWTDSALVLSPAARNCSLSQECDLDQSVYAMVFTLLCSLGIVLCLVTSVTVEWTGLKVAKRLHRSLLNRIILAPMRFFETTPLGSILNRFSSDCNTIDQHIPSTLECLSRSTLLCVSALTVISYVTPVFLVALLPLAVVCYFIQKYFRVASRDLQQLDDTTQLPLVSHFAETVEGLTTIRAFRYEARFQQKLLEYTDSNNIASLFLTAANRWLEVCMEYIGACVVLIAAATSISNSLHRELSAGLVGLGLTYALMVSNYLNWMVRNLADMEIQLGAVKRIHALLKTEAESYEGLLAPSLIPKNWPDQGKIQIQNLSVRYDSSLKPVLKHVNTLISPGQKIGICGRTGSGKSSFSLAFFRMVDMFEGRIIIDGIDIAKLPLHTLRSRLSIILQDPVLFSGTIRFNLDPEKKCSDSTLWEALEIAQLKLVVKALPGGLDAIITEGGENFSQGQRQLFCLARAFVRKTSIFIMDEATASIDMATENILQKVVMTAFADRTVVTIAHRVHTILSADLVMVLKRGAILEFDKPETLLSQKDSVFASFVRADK

inhibition of channel activity by 200 nM glyburide, inside-out patch clamp [1]	reactivation by MgADP of ATP-inhibited channels, inside-out patch clamp [2]	inhibition of channel activity by 0.5 μM glyburide, inside-out patch clamp [3]	Binder
45%	46%		Kir6.2 wild-type linked to GFP at the COOH terminus (natural protein) MLSRKGIIPEEYVLTRLAEDPAEPRYRTRERRARFVSKKGNCNVAHKNIREQGRFLQDVFTTLVDLKWPHTLLIFTMSFLCSWLLFAMVWWLIAFAHGDLAPGEGTNVPCVTSIHSFSSAFLFSIEVQVTIGFGGRMVTEECPLAILILIVQNIVGLMINAIMLGCIFMKTAQAHRRAETLIFSKHAVITLRHGRLCFMLRVGDLRKSMIISATIHMQVVRKTTSPEGEVVPLHQVDIPMENGVGGNGIFLVAPLIIYHVIDSNSPLYDLAPSDLHHHQDLEIIVILEGVVETTGITTQARTSYLADEILWGQRFVPIVAEEDGRYSVDYSKFGNTIKVPTPLCTARQLDEDRSLLDALTLASSRGPLRKRSVAVAKAKPKFSISPDSLS
	6%	5.5%	Kir6.2 mutant R176C linked to GFP (natural protein) MLSRKGIIPEEYVLTRLAEDPAEPRYRTRERRARFVSKKGNCNVAHKNIREQGRFLQDVFTTLVDLKWPHTLLIFTMSFLCSWLLFAMVWWLIAFAHGDLAPGEGTNVPCVTSIHSFSSAFLFSIEVQVTIGFGGRMVTEECPLAILILIVQNIVGLMINAIMLGCIFMKTAQAHCRAETLIFSKHAVITLRHGRLCFMLRVGDLRKSMIISATIHMQVVRKTTSPEGEVVPLHQVDIPMENGVGGNGIFLVAPLIIYHVIDSNSPLYDLAPSDLHHHQDLEIIVILEGVVETTGITTQARTSYLADEILWGQRFVPIVAEEDGRYSVDYSKFGNTIKVPTPLCTARQLDEDRSLLDALTLASSRGPLRKRSVAVAKAKPKFSISPDSLS
